According to paper PMC3795062:

Molecular target: endogenous β-catenin of HEK293 cells (human (endogenous in HEK293)) (UniProt P35222)
Sequence of UniProt P35222 (P35222 whole entry): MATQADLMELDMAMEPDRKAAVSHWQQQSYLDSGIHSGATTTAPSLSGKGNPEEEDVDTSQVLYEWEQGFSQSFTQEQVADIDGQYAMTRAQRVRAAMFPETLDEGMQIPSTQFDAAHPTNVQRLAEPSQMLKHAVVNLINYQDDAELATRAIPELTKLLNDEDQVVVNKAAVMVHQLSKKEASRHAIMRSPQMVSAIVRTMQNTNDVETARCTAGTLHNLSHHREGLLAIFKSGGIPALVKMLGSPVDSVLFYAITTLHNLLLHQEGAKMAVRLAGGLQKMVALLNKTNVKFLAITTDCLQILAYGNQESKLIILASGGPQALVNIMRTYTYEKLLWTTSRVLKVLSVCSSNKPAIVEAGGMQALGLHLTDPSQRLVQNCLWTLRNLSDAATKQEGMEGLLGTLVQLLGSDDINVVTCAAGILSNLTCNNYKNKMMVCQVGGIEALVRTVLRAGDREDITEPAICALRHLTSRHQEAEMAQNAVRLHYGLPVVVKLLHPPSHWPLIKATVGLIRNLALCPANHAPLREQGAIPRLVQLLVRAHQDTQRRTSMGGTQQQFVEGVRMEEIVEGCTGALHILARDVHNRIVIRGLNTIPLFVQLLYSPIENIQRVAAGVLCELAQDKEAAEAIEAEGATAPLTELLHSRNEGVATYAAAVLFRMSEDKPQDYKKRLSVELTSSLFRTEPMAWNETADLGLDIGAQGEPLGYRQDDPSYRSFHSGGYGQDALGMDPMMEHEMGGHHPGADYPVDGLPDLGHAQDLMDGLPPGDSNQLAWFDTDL

“WT-Nef expressed in HEK293 cells (natural protein)” showed an inhibition of the TopFlash (TCF-luciferase) reporter, TopFlash/FopFlash ratio, HEK293 cells with Wnt-conditioned media, 50 ng Nef plasmid of 40%.
